The text below walks through data of article PMC8190259, “Site-specific ubiquitylation acts as a regulator of linker histone H1” (Nature Communications, 2021).

For one data set, the target named is H1.2 (Homo sapiens, UniProt P16403 1-213). Put plainly: condensate FRAP; 5 uM histone, 5 uM DNA; Condensates: 1x PBS, RT; array EMSA: agarose gel with competitor DNA, buffer not in the material. As to conditions: protein: recombinant; tags: C-terminal His6; label: Atto-390 at 5' end of the reverse strand; blunt.
H1.2, sequence (P16403 whole entry): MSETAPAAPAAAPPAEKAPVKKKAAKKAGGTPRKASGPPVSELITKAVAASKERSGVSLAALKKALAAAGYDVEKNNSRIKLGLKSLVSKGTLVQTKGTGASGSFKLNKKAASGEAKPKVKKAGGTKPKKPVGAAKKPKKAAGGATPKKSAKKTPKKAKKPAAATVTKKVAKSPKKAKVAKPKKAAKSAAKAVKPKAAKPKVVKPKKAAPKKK
Data set [1] concerns the target T1, linker histone H1.2 (unmodified, recombinant) (human, UniProt P16403 1-213).
T1 construct: human linker histone H1.2; also called non-modified H1.2; unmodified H1.2; source: E. coli BL21 (DE3), purified from inclusion bodies (His-tag resin); not shown: Strep-tag II, N-terminal, kept; His6, C-terminal, kept
Nature of the data set: cross-linking; XL-MS: histone/Ub and SIRT1 at molar ratio 1:1 in 1x PBS, 2.75 mM BS3-H12/D12, 10 min on ice then 20 min at 30 °C; three biological replicates. To be noted: both partners purified.

T1 sequence (P16403 whole entry): as above

B1: 601 DNA (dsDNA)
DNA 1: CTATACGCGGCCGCCCTGGAGAATCCCGGTGCCGAGGCCGCTCAATTGGTCGTAGCAAGCTCTAGCACCGCTTAAACGCACGTACGCGCTGTCCCCCGCGTTTTAACCGCCAAGGGGATTACTCCCTAGTCTCCAGGCACGTGTCAGATATATACATCCTGTGCATGTGGATCCGAAT
DNA 2: ATTCGGATCCACATGCACAGGATGTATATATCTGACACGTGCCTGGAGACTAGGGAGTAATCCCCTTGGCGGTTAAAACGCGGGGGACAGCGCGTACGTGCGTTTAAGCGGTGCTAGAGCTTGCTACGACCAATTGAGCGGCCTCGGCACCGGGATTCTCCAGGGCGGCCGCGTATAG
As to B1, the binding result in the data set with H1.2 is listed as “binds”.

B2: SIRT1 with N-terminal deletion (recombinant) (enzyme, human, UniProt Q96EB6 1-3, looked up)
chain: MADEAAAAGGEQEAQATAAAGEGDNGPGLQGPSREPPLADNLYDEDDDDEGEEEEEAAAAAIGYRDNLLFGDEIITNGFHSCESDEEDRASHASSSDWTPRPRIGPYTFVQQHLMIGTDPRTILKDLLPETIPPPELDDMTLWQIVINILSEPPKRKKRKDINTIEDAVKLLQECKKIIVLTGAGVSVSCGIPDFRSRDGIYARLAVDFPDLPDPQAMFDIEYFRKDPRPFFKFAKEIYPGQFQPSLCHKFIALSDKEGKLLRNYTQNIDTLEQVAGIQRIIQCHGSFATASCLICKYKVDCEAVRGDIFNQVVPRCPRCPADEPLAIMKPEIVFFGENLPEQFHRAMKYDKDEVDLLIVIGSSLKVRPVALIPSSIPHEVPQILINREPLPHLHFDVELLGDCDVIINELCHRLGGEYAKLCCNPVKLSEITEKPPRTQKELAYLSELPPTPLHVSEDSSSPERTSPPDSSVIVTLLDQAAKSNDDLDVSESKGCMEEKPQEVQTSRNVESIAEQMENPDLKNVGSSTGEKNERTSVAGTVRKCWPNRVAKEQISRRLDGNQYLFLPPNRYIFHGAEVYSDSEDDVLSSSSCGSNSDSGTCQSPSLEEPMEDESEIEEFYNGLEDEPDVPERAGGAGFGTDGDDQEAINEAISVKQEVTDMNYPSNKS
notes: human NAD+-dependent deacetylase SIRT1, aa 1-3 (construct of 669 aa: aa 1-3 + 82-747); human NAD+-dependent deacetylase SIRT1, aa 82-747 (construct of 669 aa: aa 1-3 + 82-747); source: E. coli BL21 (DE3), purified (HisTrap FF, size-exclusion chromatography); not shown: His6, C-terminal, kept
Turning to B2, in data set [1], the binding result was “binds”.
